Results on two substances are retold here after PMC1557830.

Test [1] concerns the target SIV transmembrane glycoprotein gp41 (SIVmneE11S), naturally truncated intra-viral domain of 17 amino acids, on virions (SIV (strain SIVmneE11S)) (UniProt P05885). Nature of the test: cryo-EM structure; cryo-electron tomography of vitrified intact SIVmneE11S virions; 2,986 spikes extracted, aligned and averaged with 3-fold symmetrisation; 28 Å (0.5 FSC); Env unliganded, in situ on the viral membrane.

In test [2] the target is SIV surface glycoprotein gp120 (SIVmneE11S), on virions (SIV (strain SIVmneE11S)) (UniProt P05885). Described as above.

As to “SIV transmembrane glycoprotein gp41 (SIVmneE11S), naturally truncated intra-viral domain of 17 amino acids, on virions (from UniProt P05885 529-882) (natural protein)”, in test [1], the stoichiometry N was 3.
For “SIV surface glycoprotein gp120 (SIVmneE11S), on virions (from UniProt P05885 23-528) (natural protein)”, the stoichiometry N in test [2] stood at 3.
